In data set [1] the target is T1, EcFrmR (Escherichia coli K12) (UniProt P0AAP3).
T1 sequence: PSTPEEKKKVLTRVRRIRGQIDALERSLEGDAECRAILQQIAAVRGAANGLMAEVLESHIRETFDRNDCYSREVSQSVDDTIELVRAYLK
Put plainly: BLI. As to conditions: BLItz, 50 mM Tris-HCl pH 8.0, 0.5 M NaCl, 20 C; 100 nM biotinylated DNA loaded on SA tips; EcFrmR concentrations as tetramer.

Data set [2] relates to EcFrmR (Escherichia coli K12). Put plainly: BLI. As to conditions: BLItz, 50 mM Tris-HCl pH 8.0, 0.5 M NaCl, 20 C, 100 nM biotinylated DNA loaded on SA tips, EcFrmR concentrations as tetramer.

Values joined by “and” are separate entries in the source; they are usually repeats but may differ in a detail not shown here. Equal values may be shown once.

What is called Kd is the concentration at which binding is half-saturated. Higher therefore signals a looser complex. As to “GGCCTTCCCTGCCGATTAGCCCCCCCCCCTTTCCTCTTTGTTTTCCGACCACATTCACCGGATAAATTTTATTCTCCAGTGTTATATACTATAGGGGGGTATGCATTGACATATAGAATACCCCCCTATAGTATATTGCATGCAGATGATGAGGTGCGAAATGCCCAGTACTCCGGAAGAGAAGAAA (double strand) [Pfrm (frmRAB promoter)]”, in data set [1], the Kd is 220 nM and 520 nM.
On the same count and under the same terms, the value for “GTTAAGGGCTCAGAATAATCACATTATTTTTTCTCCTAACCATAAAGGATTAGTTTATCGGCGTTAATCTTTTCTCATACACTATCGGGTTAGGGAAAATATCTGGTGTTGGGGACAGAGTCAGCAGCGTATTAGTTGAATGCTTAATATCAGGCTGCTGAATTGTCAGCACTGTGTTTGCGAAGAGGATGCGAAATAAATGAACCCGGTTGATCGTCCACTATTAG (double strand) [PydhY]” was 3600 nM.
Regarding Pfrm (frmRAB promoter), the Kd in data set [2] (Zn(II)4-loaded tetramer, kf 5660 M-1 s-1, kr 0.003 s-1) was found to be 520 nM; in data set [2] (no Zn, no HCHO, kf 13000 M-1 s-1, kr 0.0028 s-1, text ~220, upper limit), 220 nM.
On to PydhY, for which the Kd in data set [2] (no Zn, no HCHO, kf 1950 M-1 s-1, kr 0.007 s-1, text ~3600) came out at 3600 nM.
